In paper PMC5937737, “RIT1 controls actin dynamics via complex formation with RAC1/CDC42 and PAK1” (PLoS Genetics, 2018):
Values belong to the binder of their own block, whether it stands above or below them.

Key:
Assay in all cases: pull-down; in-vitro binding assay: GST fusion protein (1 μM) on glutathione agarose mixed with His-RIT1 (0.5 μM or a concentration series) loaded with GDP or GTPγS; 20 mM Tris-HCl, 100 mM NaCl, 0.1% Triton X-100, 1 mM DTT, 100 mM MgCl2; 30 min at room temperature; anti-His immunoblot
Details in all cases: both partners purified
[1] = biological target: T1, His-RIT1^WT (amino acids 1-201) (human, UniProt Q92963-1 1-201)
T1 construct: RIT1, human; loaded with GDP or non-hydrolyzable GTPγS before the assay; also called His-tagged RIT1; recombinant His-tagged RIT1 wildtype; source: E. coli BL21 (pET151/D-TOPO-RIT1^WT), purified
T1 sequence (Q92963 1-201): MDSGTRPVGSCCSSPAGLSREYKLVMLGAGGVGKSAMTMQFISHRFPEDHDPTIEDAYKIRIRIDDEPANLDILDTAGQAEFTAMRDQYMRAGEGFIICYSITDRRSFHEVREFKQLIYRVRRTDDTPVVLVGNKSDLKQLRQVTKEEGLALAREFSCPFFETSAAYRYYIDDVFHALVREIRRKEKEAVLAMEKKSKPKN

[2] = biological target: T2, His-RIT1^A57G (amino acids 1-201) (human, UniProt Q92963-1 1-201, A57G)
T2 construct: RIT1, human; Noonan syndrome-associated substitution in switch I; loaded with GDP or non-hydrolyzable GTPγS before the assay; also called RIT1 mutant p.A57G (recombinant); source: E. coli BL21 (pET151/D-TOPO-RIT1^A57G), purified
T2 sequence (Q92963 1-201 A57G): as the sequence (Q92963 1-201) above, with A57G counted along it

[3] = biological target: T3, His-RIT1^F82L (amino acids 1-201) (human, UniProt Q92963-1 1-201, F82L)
T3 construct: RIT1, human; Noonan syndrome-associated substitution in switch II; loaded with GDP or non-hydrolyzable GTPγS before the assay; also called RIT1 mutant p.F82L (recombinant); source: E. coli BL21 (pET151/D-TOPO-RIT1^F82L), purified
T3 sequence (Q92963 1-201 F82L): as the sequence (Q92963 1-201) above, with F82L counted along it

binding result [1]: binds
B1: GST-CDC42 (amino acids 1-178) (domain or fragment)
chain: not shown
notes: CDC42, amino acids 1-178; loaded with GDP or GTPγS before the assay; source: E. coli BL21 (pGEX-4T3-CDC42), isolated, coupled to glutathione agarose beads

binding result [1]: binds
binding result [2]: binds
binding result [3]: binds
B2: GST-PAK[CRIB] (domain or fragment, UniProt Q13153 58-141, looked up)
chain: ILPGDKTNKKKEKERPEISLPSDFEHTIHVGFDAVTGEFTGMPEQWARLLQTSNITKSEQKKNPQAVLDVLEFYNSKKTSNSQK
notes: PAK1, CRIB domain, amino acids 58-141; source: E. coli BL21 (pGEX-2TK-PAK[CRIB]), isolated, coupled to glutathione agarose beads
